# Measurements published in PMC5778499.
# T1: Pit-1ΔN (UniProt P28069 105-291)
# T1 sequence: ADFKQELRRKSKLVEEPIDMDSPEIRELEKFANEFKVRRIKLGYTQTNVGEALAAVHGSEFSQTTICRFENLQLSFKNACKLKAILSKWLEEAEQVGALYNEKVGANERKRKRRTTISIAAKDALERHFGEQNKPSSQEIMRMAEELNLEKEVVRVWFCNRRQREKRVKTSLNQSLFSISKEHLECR
# T2: Pit-1wt (UniProt P28069 1-291)
# T2 sequence: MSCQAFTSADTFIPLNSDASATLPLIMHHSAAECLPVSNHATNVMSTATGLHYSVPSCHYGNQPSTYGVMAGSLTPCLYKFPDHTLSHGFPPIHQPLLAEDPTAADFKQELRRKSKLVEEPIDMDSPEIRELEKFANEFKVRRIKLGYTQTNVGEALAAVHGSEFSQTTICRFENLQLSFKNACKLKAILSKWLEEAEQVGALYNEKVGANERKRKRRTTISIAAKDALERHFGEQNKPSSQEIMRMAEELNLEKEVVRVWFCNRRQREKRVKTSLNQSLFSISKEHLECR
# T3: Pit-1ΔNΔC (UniProt P28069 124-273)
# T3 sequence: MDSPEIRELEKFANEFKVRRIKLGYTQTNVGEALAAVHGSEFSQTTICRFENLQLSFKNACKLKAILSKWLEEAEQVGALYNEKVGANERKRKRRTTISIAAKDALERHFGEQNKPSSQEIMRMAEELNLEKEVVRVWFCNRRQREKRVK
# T4: UHRF1 (UniProt Q96T88 1-793)
# T4 sequence: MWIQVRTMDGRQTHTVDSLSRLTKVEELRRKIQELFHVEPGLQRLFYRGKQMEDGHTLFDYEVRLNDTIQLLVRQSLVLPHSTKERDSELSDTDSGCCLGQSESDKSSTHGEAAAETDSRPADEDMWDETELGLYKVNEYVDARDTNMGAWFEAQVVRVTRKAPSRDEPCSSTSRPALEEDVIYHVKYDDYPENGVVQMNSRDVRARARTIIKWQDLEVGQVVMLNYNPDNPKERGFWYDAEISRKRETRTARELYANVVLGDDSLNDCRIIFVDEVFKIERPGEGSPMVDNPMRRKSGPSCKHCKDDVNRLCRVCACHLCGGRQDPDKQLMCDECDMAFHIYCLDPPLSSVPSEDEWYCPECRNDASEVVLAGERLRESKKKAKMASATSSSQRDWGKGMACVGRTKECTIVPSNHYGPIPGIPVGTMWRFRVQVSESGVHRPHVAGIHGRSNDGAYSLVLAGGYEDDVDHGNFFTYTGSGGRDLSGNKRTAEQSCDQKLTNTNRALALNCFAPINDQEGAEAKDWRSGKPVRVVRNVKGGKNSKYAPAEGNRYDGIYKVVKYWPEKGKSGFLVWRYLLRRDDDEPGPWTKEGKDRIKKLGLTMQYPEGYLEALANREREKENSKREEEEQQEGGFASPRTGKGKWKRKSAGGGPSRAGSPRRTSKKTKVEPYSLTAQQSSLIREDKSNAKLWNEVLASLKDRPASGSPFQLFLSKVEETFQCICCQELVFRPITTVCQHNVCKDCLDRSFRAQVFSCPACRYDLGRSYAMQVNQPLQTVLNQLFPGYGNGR
# How the values were obtained:
# Pit-1ΔN [1] = biological target: T1, Pit-1ΔN; assay: competition
# Pit-1wt [2] = biological target: T2, Pit-1wt; assay: fluorescence anisotropy
# Pit-1ΔN [3] = biological target: T1, Pit-1ΔN; assay: competition; remark: listed apart in the source
# Pit-1ΔN [4] = biological target: T1, Pit-1ΔN; assay: fluorescence anisotropy
# Pit-1ΔN [5] = biological target: T1, Pit-1ΔN; assay: fluorescence anisotropy; remark: listed apart in the source
# Pit-1ΔNΔC = biological target: T3, Pit-1ΔNΔC; assay: gel filtration
# Pit-1ΔN [6] = biological target: T1, Pit-1ΔN; assay: competition; remark: listed apart in the source
# Pit-1wt [7] = biological target: T2, Pit-1wt; assay: EMSA
# UHRF1 = biological target: T4, UHRF1; assay: EMSA
binder,measurement,setting,value
uhGH (dsDNA) DNA 1: GAGGAGCTTCTAAATTATCCATTAGCACAAGCCCGTCAGTGGCCCCATGCATAAATGTACACAGAAACAG DNA 2: CTGTTTCTGTGTACATTTATGCATGGGGCCACTGACGGGCTTGTGCTAATGGATAATTTAGAAGCTCCTC,binding result,Pit-1ΔN [1],binds
f0x (dsDNA) DNA 1: TGTCCTCTTCCTGCTATGTCATGGCTTATCTTCTTTCACCCAGCAGTATTAGTCAATGTCTCTTGTATGCCTGGCACCT DNA 2: AGGTGCCAGGCATACAAGAGACATTGACTAATACTGCTGGGTGAAAGAAGATAAGCCATGACATAGCAGGAAGAGGACA,Kd,Pit-1wt [2],167 nM
u4x (4xCATT) (dsDNA) DNA 1: CACCCATTCATTCATTCATTCAG DNA 2: CTGAATGAATGAATGAATGGGTG,binding result,Pit-1ΔN [3],binds
f8x (dsDNA) DNA 1: CACCCATTCATTCATTCATTCATTCATTCATTCATTCAG DNA 2: CTGAATGAATGAATGAATGAATGAATGAATGAATGGGTG,Kd,Pit-1ΔN [4],27 nM
same,Kd,Pit-1wt [2],35 nM
f4x (dsDNA) DNA 1: CACCCATTCATTCATTCATTCAG DNA 2: CTGAATGAATGAATGAATGGGTG,binding result,Pit-1ΔN [5],binds
4xCATT crystallization duplex (f4xCrystF/f4xCrystRC) (dsDNA) DNA 1: CCATTCATTCATTCATTCGGA DNA 2: CCGAATGAATGAATGAATGGT,binding result,Pit-1ΔNΔC,binds
u5x99 (dsDNA) DNA 1: TGTCCTCTTCCTGCTATGTCATGGCTTATCTTCTTTCACCCATTCATTCATTCATTCATTCAGCAGTATTAGTCAATGTCTCTTGTATGCCTGGCACCT DNA 2: AGGTGCCAGGCATACAAGAGACATTGACTAATACTGCTGAATGAATGAATGAATGAATGGGTGAAAGAAGATAAGCCATGACATAGCAGGAAGAGGACA,binding result,Pit-1ΔN [6],binds
8xCATT 111 biotin (dsDNA) DNA 1: TGTCCTCTTCCTGCTATGTCATGGCTTATCTTCTTTCACCCATTCATTCATTCATTCATTCATTCATTCATTCAGCAGTATTAGTCAATGTCTCTTGTATGCCTGGCACCT DNA 2: AGGTGCCAGGCATACAAGAGACATTGACTAATACTGCTGAATGAATGAATGAATGAATGAATGAATGAATGGGTGAAAGAAGATAAGCCATGACATAGCAGGAAGAGGACA,binding result,Pit-1wt [7],binds
same,Kd,UHRF1,> 1000 nM
u8x111 (dsDNA) DNA 1: TGTCCTCTTCCTGCTATGTCATGGCTTATCTTCTTTCACCCATTCATTCATTCATTCATTCATTCATTCATTCAGCAGTATTAGTCAATGTCTCTTGTATGCCTGGCACCT DNA 2: AGGTGCCAGGCATACAAGAGACATTGACTAATACTGCTGAATGAATGAATGAATGAATGAATGAATGAATGGGTGAAAGAAGATAAGCCATGACATAGCAGGAAGAGGACA,binding result,Pit-1ΔN [6],binds
